The source of these data is the nanobody polyreactivity screen of Harvey et al. (2022).

This series in a line: yeast display, Sf9 membrane polyspecificity reagent, FACS + sequencing; frameworks hold sequencing errors. Summed up: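 After 36–48 hours of galactose induction, yeast (Saccharomyces cerevisiae BJ5465) displaying a synthetic nanobody library were stained at 4 °C for 1 hour with 10% biotinylated, detergent-solubilized Sf9 membrane reagent. Streptavidin microbeads enriched the stained cells before FACS sorting into low and high (top ~1%) gates on anti-HA and streptavidin fluorescence. Each clone's polyreactivity label reflects its gate of origin.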
Turning to “QVQLVESGGGLVQAGGRLRLSCAASGFIFWTYAMGWYRQAPGKERELVARISWSGGSTYYADSVKGRFTISRDTAKNTVYLQMNSLKPEDTAVYYCARLATLYESIEYDYWGQGTQVTVSS”, the “polyreactivity (PSR sort gate)” value is recorded as “low polyreactivity”.

For the sequence “QVQLVESGGGLVQAGGRLRLSCAASGFIHYAMGWYRQAPGNERELVAAIRHSGGSTYYADSVKGRFTISRDNANNTVYIHMNSLKPEDTAVYYCAASRSGVGYRMQYWGQGTQVTVSS”, the “polyreactivity (PSR sort gate)” value is reported as “low polyreactivity”.

“QVQLVESGGGLVQAGGRLRLSCAASGFKYAMGWYRQGPGKDRELVAAISSGGITSYADSVKGRFTISRDNAKNTVYLQMNSLKPEDTAVYYCNARLRHSQYAYYYWGQGTQVTVSS”: the “polyreactivity (PSR sort gate)” value was “high polyreactivity”.

Take “QVQLVESGGGLVQAGGRLRLSCAASGFTCGVYDMGWYRQAPGKERALVADIDFTGGDTYYADSVKGRFTISRDNAKNTVYLQMIRLKPEDTAVYYCAARSWGVIYDYFYLGLDYWGQGTQVTVSS”: the “polyreactivity (PSR sort gate)” value is listed as “low polyreactivity”.

As for “QVQLVESGGGLVQAGGRLRLSCAASGFTFGDNAMGWYRQAPGKERELVAAITSSGSTNYADSVKGRFTISRDNAKNTVYLQMNSLKPEDTAVYYCNAEDSVDAPVYKDLGSEYDSWGQGTQVTVSS”, the “polyreactivity (PSR sort gate)” value is reported as “low polyreactivity”.

For the sequence “QVQLVESGGGLVQAGGRLRLSCAASGFTFHNNVMGWYRQAPGKERELVATISKSGGSTYYADSVKGRFTISRDHAKNTVYLQMNSLKPEDTAVYYCARRYRDYGRYGYWGQGTQVTVSS”, the “polyreactivity (PSR sort gate)” value is listed as “high polyreactivity”.

Regarding “QVQLVESGGGLVQAGGRLRLSCAASGGIFRRNAMGWYRPAPGKERELVAAISRSGGRTYYADSVKGRFTISRDNAKTSVYLQMNSLKPEDTAVYYCNADYGTRAGVDYWGQGTQVTVSS”, the “polyreactivity (PSR sort gate)” value is listed as “low polyreactivity”.

In the case of “QVQLVESGGGLVQAGGRLRLSCAASGGIFSAYAMGWYRQAPGTERELVAAISSGGSTKYADSVKGRVTISRDNAQNTVYLQMNSLKPEDTAVYYCAVLYIRWYTYEYWGQGAQVTVSS”, the “polyreactivity (PSR sort gate)” value is “high polyreactivity”.

On to “QVQLVESGGGLVQAGGRLRLSCAASGGTFYLIAMGWYIQAPGKERELVAAISGSGTSTYYADSVKGRFTISRDNAKNTVYLQMNSLKPEDTAVYYCAADGTYFYIYLGDRFDYWGQGTQVTVSS”, for which the “polyreactivity (PSR sort gate)” value was “low polyreactivity”.

Regarding “QVQLVESGGGLVQAGGRLRLSCAASGIIFPRYAMGWYRQAPGKERELVAAISGSGVGTYYADSVKGRFTISRDYAKNTVYIQMNSLKPEDTAVYSCATRYQWGGPYYRYDYWGQGTQVTVSS”, the “polyreactivity (PSR sort gate)” value was “high polyreactivity”.

Turning to “QVQLVESGGGLVQAGGRLRLSCAASGIIFYVYTMGWSRQAPGKERELVAAISGSGGSTTYADSVKGRFTISRDNAKNTVYLQMNSLKPEDTAVYYCNAKKWFYRWWKFSEFDYWGQGTQVTVSS”, the “polyreactivity (PSR sort gate)” value is given as “high polyreactivity”.

For “QVQLVESGGGLVQAGGRLRLSCAASGIIIDYYTMGWYRQAPGKERELVAAINKSGGSTYADSVKGRFTISRDNAKNTVYLQMNSLKPEDTAVYYCAAEVDYSYWPEYARKYYYWGQGTQVTVSS”, the “polyreactivity (PSR sort gate)” value was “low polyreactivity”.

In the case of “QVQLVESGGGLVQAGGRLRLSCAASGITFYSYAMGRYRQAPGKERELVAAISTTVGSTYYADYVKGRFTISRDNPNNTVYLQMNSLKPEDTAVYYCNSYSVYAWIEYNYWGQGTQVTVSS”, the “polyreactivity (PSR sort gate)” value is on record as “low polyreactivity”.

Regarding “QVQLVESGGGLVQAGGRLRLSCAASGITISGNAMGWYRQAPGKERELDAAISGRGGSTYYADSVKGRFTISRDNAKNTVYLQMNSLIPEDTAVFYCAARVPSPYVATYYYWGQGSQVTVSS”, the “polyreactivity (PSR sort gate)” value is “high polyreactivity”.

On to “QVQLVESGGGLVQAGGRLRLSCAASGLIFDYYAMGWYRQAPGKERELVAAISYSGGRTYYADSVKCRFTISRDNAKNTVYLQMNSLKPEDTAVYYCNKVVLQPVIVDHDYWGQGTQVTVSS”, for which the “polyreactivity (PSR sort gate)” value is listed as “low polyreactivity”.

Consider “QVQLVESGGGLVQAGGRLRLSCAASGLIFGANTMGWYSQAPGKERELVAAITSSGGSTYYADSVKGRFTISRDNAKNTVYLQMNSLKPEDTAVYFCNDRSWYPYDYWGQGTQVTVSS”, for which the “polyreactivity (PSR sort gate)” value is “low polyreactivity”.

With “QVQLVESGGGLVQAGGRLRLSCAASGLIFRTYTMVWYRQAPGKERELVATITRRGGTTYYADSVKGRFTISRDNAKNTVYLQMNSLKPEDTAVYYCAAKSAYHGLVGGYYYWGQGTQVTVSS”, the “polyreactivity (PSR sort gate)” value is given as “high polyreactivity”.

As for “QVQLVESGGGLVQAGGRLRLSCAASGLIFSVYVMGGYRQAPGKERELVAGITTGGSTKYADSVKGRFTISRDNAKNTVYLEMNSLKPEDTAVYYCAVGKYNYRGSWDYYWGQGTQVTVSS”, the “polyreactivity (PSR sort gate)” value was “high polyreactivity”.

Turning to “QVQLVESGGGLVQAGGRLRLSCAASGLTFAKYSMGWYRQAPGTERELVAAITASGASTYYADSVKGRFTISRDNAKNTVYLQMNSLKPEDTAVYYCAVRRYYNDYWGQGSQVTVSS”, the “polyreactivity (PSR sort gate)” value is reported as “low polyreactivity”.

In the case of “QVQLVESGGGLVQAGGRLRLSCAASGLTFGWYTMGWYRQAPGKERELVADITWSGGSTYYADSVKGRFTISRDNAKNTVYLQMNSLKPEDTAVYYCNKVWFYLEYGFSILYDYWGQGTQVTVSS”, the “polyreactivity (PSR sort gate)” value was “low polyreactivity”.

With “QVQLVESGGGLVQAGGRLRLSCAASGLTFLPNAMGWYRQAPGKERELVAAISWSDVRTYYADSVKGRFTISRDNAKNTVYLQMNSLKPEDTAVYYCAAEIYDLPEGDYWGQGTQVTVSS”, the “polyreactivity (PSR sort gate)” value is recorded as “high polyreactivity”.

“QVQLVESGGGLVQAGGRLRLSCAASGLTFTYYAMGWYRQAPGKERELVATISWSGGTTYADSVKGRFTISRDNAKNTVYLQMNSLKPEDTAVYYCAADHPLYRRYDYWGQGTQVTVSS”: the “polyreactivity (PSR sort gate)” value is on record as “high polyreactivity”.

Consider “QVQLVESGGGLVQAGGRLRLSCAASGRIFGINVMGWYRQAPGKERELVARITGRGGRTYYADSVKGRFTISRDNAKNTVYLQMNSLKPEDTAVYYCAADASYEAYDYWGQGTQVTVSS”, for which the “polyreactivity (PSR sort gate)” value is “high polyreactivity”.

For “QVQLVESGGGLVQAGGRLRLSCAASGRIFNIYAMGWYRQAPGKERELVAAISGSGGRTSYADSVKGRFTISRDNAKNTVYLQMNSLKPEDTAVYYCAADYSYYTSFRYDYWGQGTQVTVSS”, the “polyreactivity (PSR sort gate)” value is “low polyreactivity”.

For the sequence “QVQLVESGGGLVQAGGRLRLSCAASGRIFPRYVMGWYRQAHGKERELVAAITYRGGSTSYADSVKGRFTISRDNAKNTVYLQMNSLKPEDTAVYYCNAYRRAGRTVGTTRRYYYLGQGTQVTVSS”, the “polyreactivity (PSR sort gate)” value was “high polyreactivity”.

“QVQLVESGGGLVQAGGRLRLSCAASGRIFPVYTMGWYRQAPGKERELVAAISGNGASTYYADSVKGRFTISRDNAKNTVYLQMNSLKPEDTAVYYCAAYFYYWGSTFVRYEYWGQGTQVTVSS”: the “polyreactivity (PSR sort gate)” value is listed as “high polyreactivity”.

On to “QVQLVESGGGLVQAGGRLRLSCAASGRIFVYYAMGWYRQAPGKERELVAAINSSGGRTYYADSVKGRFTISRDNAKNTVYLQMNSLKPEDTAVYYCAARKYSYPVAAHYYWGQGTQVTVSS”, for which the “polyreactivity (PSR sort gate)” value is recorded as “high polyreactivity”.

On to “QVQLVESGGGLVQAGGRLRLSCAASGRTFDRYAMGWYRQAPGKERELVAAITWSGGRTYYADSVKGRFTISRDNAKKTVYLQMNSLKPEDTAVYYCAADNSYRGYHSPYDYWGQGTQVTVSS”, for which the “polyreactivity (PSR sort gate)” value is listed as “low polyreactivity”.

On to “QVQLVESGGGLVQAGGRLRLSCAASGRTFFRYVMGWYRQAPGKERELVAAISRSGGSTYYADSVKGRFTISRDNAKNTVYLQMNSLKPEATAVFYCNTVARSTVVPTEFDYWGQGTQVTVSS”, for which the “polyreactivity (PSR sort gate)” value is “high polyreactivity”.

Take “QVQLVESGGGLVQAGGRLRLSCAASGRTFPYYVMGWYRQAPGKERELVAVIRWRGGSTYYADSVKGRFTISRDNAKNTVYLQMNSLKPEDTAVYYCAARRHIVVATYDRRYDYWGQGTQVTVSS”: the “polyreactivity (PSR sort gate)” value is on record as “low polyreactivity”.
